Measured values from patent US20240058467A1 (SUTRO BIOPHARMA, published 2024).
Read-outs that look alike come from different tables or passages of the source.

B1: Conjugate 4 (2188-D04-Y180/F404/K42/E161-LP1) (antibody, human IgG1, kappa)
heavy: MEVQLVESGGGLVQPGGSLRLSCAASGFNISDYDIHWVRQAPGKGLEWVGGIDPADGSTDYADSVKGRFTISADTSKNTAYLQMNSLRAEDTAVYYCARDYGVYDYWGQGTLVTVSSASTKGPSVFPLAPSSKSTSGGTAALGCLVKDYFPEPVTVSWNSGALTSGVHTFPAVLQSSGLSLSSVVTVPSSSLGTQTYICNVNHKPSNTKVDKKVEPKSCDKTHTCPPCPAPELLGGPSVFLFPPKPKDTLMISRTPEVTCVVVDVSHEDPEVKFNWYVDGVEVHNAKTKPREEQYNSTYRVVSVLTVLHQDWLNGKEYKCKVSNKALPAPIEKTISKAKGQPREPQVYTLPPSREEMTKNQVSLTCLVKGFYPSDIAVEWESNGQPENNYKTTPPVLDSDGSFLYSKLTVDKSRWQQGNVFSCSVMHEALHNHYTQKSLSLSPGK
light: MDIQMTQSPSSLSASVGDRVTITCRASQDVNTAVAWYQQKPGAPKLLIYSASFLYSGVPSRFSGSRSGTDFTLTISSLQPEDFATYYCQQHYTTPPTFGQGTKVEIKRTVAAPSVFIFPPSDEQLKSGTASVVCLLNNFYPREAKVQWKVDNALQSGNSQSVTEQDSKDSTYSLSSTLTLSKADYEKHKVYACEVTHQGLSSPVTKSFNRGEC
modifications: pAMF in place of K42 and E161, printed '*', conjugated to LP1; pAMF in place of Y180 and F404 (EU), printed '*', conjugated to LP1
B2: Conjugate 7 (2188-D04-Y180/F404/K42/E161-LP10) (antibody, human IgG1, kappa)
heavy: B1 heavy
light: B1 light
modifications: pAMF in place of K42 and E161, printed '*', conjugated to LP10; pAMF in place of Y180 and F404 (EU), printed '*', conjugated to LP10
B3: Conjugate 10: D04-Y180/F404/K42/E161-LP4 (antibody, human IgG1, kappa)
heavy: B1 heavy
light: B1 light
modifications: pAMF at K42 and E161 (printed * in the sequence), linked to LP4; pAMF at Y180 and F404 (printed * in the sequence), linked to LP4
B4: Conjugate 8: D04-Y180/F404/K42/E161-LP2 (antibody, human IgG1, kappa)
heavy: B1 heavy
light: B1 light
modifications: pAMF at K42 and E161 (printed * in the sequence), linked to LP2; pAMF at Y180 and F404 (printed * in the sequence), linked to LP2
B5: Conjugate 40: D04-Y180F404/K42/E161-LP21 (antibody, human IgG1, kappa)
heavy: B1 heavy
light: B1 light
modifications: pAMF at K42 and E161 (printed * in the sequence), linked to LP21; pAMF at Y180 and F404 (printed * in the sequence), linked to LP21
B6: Conjugate 35: D04-Y180F404/K42/E161-LP19 (antibody, human IgG1, kappa)
heavy: B1 heavy
light: B1 light
modifications: pAMF at K42 and E161 (printed * in the sequence), linked to LP19; pAMF at Y180 and F404 (printed * in the sequence), linked to LP19
B7: Conjugate 15: D04-Y180/F404/K42/E161-LP13 (antibody, human IgG1, kappa)
heavy: B1 heavy
light: B1 light
modifications: pAMF at K42 and E161 (printed * in the sequence), linked to LP13; pAMF at Y180 and F404 (printed * in the sequence), linked to LP13
B8: Conjugate 4: D04-Y180/F404/K42/E161-LP1 (antibody, human IgG1, kappa)
heavy: B1 heavy
light: B1 light
modifications: pAMF at K42 and E161 (printed * in the sequence), linked to LP1; pAMF at Y180 and F404 (printed * in the sequence), linked to LP1
B9: Conjugate 11: D04-Y180/F404/K42/E161-LP7 (antibody, human IgG1, kappa)
heavy: B1 heavy
light: B1 light
modifications: pAMF at K42 and E161 (printed * in the sequence), linked to LP7; pAMF at Y180 and F404 (printed * in the sequence), linked to LP7
B10: Conjugate 14: D04-Y180/F404/K42/E161-LP12 (antibody, human IgG1, kappa)
heavy: B1 heavy
light: B1 light
modifications: pAMF at K42 and E161 (printed * in the sequence), linked to LP12; pAMF at Y180 and F404 (printed * in the sequence), linked to LP12
B11: Conjugate 36: D04-Y180F404/K42/E161-LP20 (antibody, human IgG1, kappa)
heavy: B1 heavy
light: B1 light
modifications: pAMF at K42 and E161 (printed * in the sequence), linked to LP20; pAMF at Y180 and F404 (printed * in the sequence), linked to LP20
B12: Conjugate 33: D04-Y180F404/K42/E161-LP17 (antibody, human IgG1, kappa)
heavy: B1 heavy
light: B1 light
modifications: pAMF at K42 and E161 (printed * in the sequence), linked to LP17; pAMF at Y180 and F404 (printed * in the sequence), linked to LP17
B13: Conjugate 12: D04-Y180/F404/K42/E161-LP5 (antibody, human IgG1, kappa)
heavy: B1 heavy
light: B1 light
modifications: pAMF at K42 and E161 (printed * in the sequence), linked to LP5; pAMF at Y180 and F404 (printed * in the sequence), linked to LP5
B14: Conjugate 39: D04-Y180F404/K42/E161-LP22 (antibody, human IgG1, kappa)
heavy: B1 heavy
light: B1 light
modifications: pAMF at K42 and E161 (printed * in the sequence), linked to LP22; pAMF at Y180 and F404 (printed * in the sequence), linked to LP22
B15: Conjugate 30: D04-Y180F404/K42/E161-LP14 (antibody, human IgG1, kappa)
heavy: B1 heavy
light: B1 light
modifications: pAMF at K42 and E161 (printed * in the sequence), linked to LP14; pAMF at Y180 and F404 (printed * in the sequence), linked to LP14
B16: Conjugate 34: D04-Y180F404/K42/E161-LP18 (antibody, human IgG1, kappa)
heavy: B1 heavy
light: B1 light
modifications: pAMF at K42 and E161 (printed * in the sequence), linked to LP18; pAMF at Y180 and F404 (printed * in the sequence), linked to LP18
B17: Conjugate 31: D04-Y180F404/K42/E161-LP15 (antibody, human IgG1, kappa)
heavy: B1 heavy
light: B1 light
modifications: pAMF at K42 and E161 (printed * in the sequence), linked to LP15; pAMF at Y180 and F404 (printed * in the sequence), linked to LP15
B18: Conjugate 13: D04-Y180/F404/K42/E161-LP6 (antibody, human IgG1, kappa)
heavy: B1 heavy
light: B1 light
modifications: pAMF at K42 and E161 (printed * in the sequence), linked to LP6; pAMF at Y180 and F404 (printed * in the sequence), linked to LP6
B19: Conjugate 32: D04-Y180F404/K42/E161-LP16 (antibody, human IgG1, kappa)
heavy: B1 heavy
light: B1 light
modifications: pAMF at K42 and E161 (printed * in the sequence), linked to LP16; pAMF at Y180 and F404 (printed * in the sequence), linked to LP16
B20: Conjugate 9: D04-Y180/F404/K42/E161-LP3 (antibody, human IgG1, kappa)
heavy: B1 heavy
light: B1 light
modifications: pAMF at K42 and E161 (printed * in the sequence), linked to LP3; pAMF at Y180 and F404 (printed * in the sequence), linked to LP3
B21: Conjugate 38: D04-Y180F404/K42/E161-LP23 (antibody, human IgG1, kappa)
heavy: B1 heavy
light: B1 light
modifications: pAMF at K42 and E161 (printed * in the sequence), linked to LP23; pAMF at Y180 and F404 (printed * in the sequence), linked to LP23
B22: Conjugate 16: D04-Y180/F404/K42/E161-LP34 (antibody, human IgG1, kappa)
heavy: B1 heavy
light: B1 light
modifications: pAMF at K42 and E161 (printed * in the sequence), linked to LP34; pAMF at Y180 and F404 (printed * in the sequence), linked to LP34

Columns and labels:
Assay in all cases: cell-based or functional assay
human ROR1 (hROR1) = human ROR1 (hROR1) (human, UniProt Q01973 30-937)
[1] = target: T1, ROR1 antigen expressed on ROR1 positive Ntera-2 cells (UniProt Q01973 30-937)
[2] = target: T1, ROR1 antigen expressed on ROR1 positive …; remark: listed apart in the source
[3] = target: T1, ROR1 antigen expressed on ROR1 positive …; remark: listed apart in the source
[4] = target: T1, ROR1 antigen expressed on ROR1 positive …; remark: listed apart in the source

Binder	NTERA-2 cell killing EC50 [2]	NTERA-2 cell killing Span (%) [2]	NTERA-2 cell killing EC50 [4]	NTERA-2 cell killing Span (%) [4]	other results
B1	–	–	–	–	NTERA-2 cell killing EC50 (human ROR1 (hROR1)): 0.022 nM; NTERA-2 cell killing Span (human ROR1 (hROR1)): 63%
B2	–	–	–	–	NTERA-2 cell killing EC50 (human ROR1 (hROR1)): 0.048 nM; NTERA-2 cell killing Span (human ROR1 (hROR1)): 94%
B3	0.013 nM	89%	0.004 nM	77%	NTERA-2 cell killing EC50 [1]: 0.019 nM; NTERA-2 cell killing Span (%) [1]: 86%; NTERA-2 cell killing EC50 [3]: 0.003 nM; NTERA-2 cell killing Span (%) [3]: 96%
B4	–	–	> 10 nM	< 10%	–
B5	0.076 nM	68%	–	–	–
B6	0.236 nM	77%	–	–	–
B7	–	–	0.072 nM	–	–
B8	0.05 nM	65%	0.023 nM	58%	NTERA-2 cell killing EC50 [1]: 0.067 nM; NTERA-2 cell killing Span (%) [1]: 60%
B9	–	–	> 10 nM	< 10%	–
B10	–	–	0.036 nM	56%	–
B11	0.222 nM	72%	–	–	–
B12	0.019 nM	87%	–	–	–
B13	–	–	–	94%	–
B14	0.215 nM	54%	–	–	–
B15	0.02 nM	88%	–	–	–
B16	0.373 nM	73%	–	–	–
B17	0.018 nM	87%	–	–	–
B18	–	–	0.028 nM	38%	–
B19	0.023 nM	86%	–	–	–
B20	–	–	0.027 nM	94%	NTERA-2 cell killing EC50 [3]: 0.119 nM; NTERA-2 cell killing Span (%) [3]: 63%
B21	0.108 nM	64%	–	–	–
B22	–	–	> 10 nM	< 10%	–
